Laboratory results taken from article PMC2867956, “Interdomain Interactions Control Ca^2+-Dependent Potentiation in the Cation Channel TRPV4” (PLoS ONE, 2010).

System: CFP-fused N1
Assay: FRET acceptor bleaching, N1/C1 interaction in HEK293 cells
Assay type: cell-based, human
Conditions: YFP-fused C1 and CFP-fused N1 coexpressed in HEK293 cells
Text: (See Methods S1 for details).

B1: C1: full-length TRPV4 C terminus, residues 721-871 (protein, UniProt Q9HBA0 721-871, looked up, fragment)
chain: TVGQVSKESKHIWKLQWATTILDIERSFPVFLRKAFRSGEMVTVGKSSDGTPDRRWCFRVDEVNWSHWNQNLGIINEDPGKNETYQYYGFSHTVGRLRRDRWSSVVPRVVELNKNSNPDEVVVPLDSMGNPRCDGHQQGYPRKWRTDDAPL
  FRET interaction of N1 and C1: interact
